The values that follow come from article doi:10.1101/2022.01.19.476892 (bioRxiv, 2022).

Assay [1] has as its target T1, SARS-CoV-2 WT RBD protein (residues 319-541) (SARS-CoV-2, UniProt P0DTC2). Briefly: SPR.
The target in assay [2] is T2, RBD protein of SARS-CoV (Severe acute respiratory syndrome …, UniProt P59594). In words: SPR. (In general: SPR reads the build-up and loss of mass on a sensor chip optically.)
Assay [3] has as its target T2, RBD protein of SARS-CoV. Briefly: cell-based or functional assay.
The target of assay [4] is T1, SARS-CoV-2 WT RBD protein (residues …). Briefly: ELISA. (In an ELISA, binding on a coated surface is turned into a signal by an enzyme label.)

B1: S2X35 (antibody, V domains shown)
VH: QVQLVQSGAEVKKPGASVKVSCKASGYTFTNYGISWVRQAPGQGLEWMGWISAYKGNTNYAQKLQGRVTMTTDTSTSTAYMELRSLRSDDTAVYYCARPDYQVLGYDFWIGYYGMDVWGQGTTVIVSS
VL: QSVLTQPPSVSGAPGQRVTISCTGSSSNIGAGYDVHWYQQLPGTAPKLLIYGNTNRPSGVPDRFSGSKSGTSASLAITGLQAEDEADYYCQSYDSSLSGSEVVFGGGTKLTVL
B1: the binding result in assay [1] is recorded as “binds”.

B2: H014 (antibody, V domains shown)
VH: EVQLVQSGAEVKKPGATVKISCKVSGYSFSNYYIHWVKQAPGKSLEWIGYIDPFNGGTSDNLKFKGAATLTADTSTDTAYMELSSLRSEDTAVYYCARSEYDPYYVMDYWGQGTTVTVSS
VL: IVLTQSPFQSVSPKEKVTITCRASQSISSNLHWYQQKPDQSPKLLIKYASQSISGIPSRFSGSGSGTDFTLTINSLEAEDFGIYFCQQTNFWPYIFGQGTKLEIL
With B2, the binding result in assay [1] is listed as “binds”.

B3: VacW-209 (antibody, V domains shown)
VH: QVQLVESGGGVVQPGRSLRLSCAASGFTFSSIAMHWVRQAPGKGLEWVAVMSFDGSIKYYGDSVKGRFTISRDNSKSTLYLQMNSLRAEDTAVYYCARGVQGYYDRSGYYNLDYNYGMDVWGQGTTVTVSS
VL: QSVLTQPPSVSGAPGQRVTISCTGSSSNIGAGYDVHWYQQLPGTAPKLLIYGNSNRPSGVPDRFSGSKSGTSASLAITGLQAEDEADYYCQSYDSSLSGWVFGGGTKLTVL
The term Kd denotes the equilibrium constant for the complex coming apart. In the case of B3, the affinity in assay [2], expressed as Kd, was 540 pM. Also, in assay [3], the “IC50 of neutralisation of SARS-CoV pseudovirus (HEK-293T-hACE2 cells)” value is 0.141 µg/mL. The binding result in assay [4] is on record as “binds”.

B4: C118 (antibody, V domains shown)
VH: QVQLVESGGGVVQPGRSLRLSCAASGFTFSNYAMHWVRQAPGKGLEWVAVISYDGSNKYYADSVKGRFTISRDNSKNTLYLQMNSLRAEDTAIYYCASGYTGYDYFVRGDYYGLDVWGQGTTVTVSS
VL: QPVLTQSPSASASLGASVKLTCTLSSGHSSYAIAWHQQQPEKGPRYLMKLNTDGSHSKGDGIPDRFSGSSSGAERYLTISSLQSEDEADYYCQTWGTGILVFGGGTKLTVL
In the case of B4, the binding result in assay [1] is given as “binds”.

B5: EY6A (antibody, V domains shown)
VH: EVQLVESGGGVVQPGRSLRLSCAASAFTFSSYDMHWVRQAPGKGLEWVAVISYDGSNKYYADSVKGRFTISRDNSKNTLYLQMNSLRAEDTAVYYCAKDGGKLWVYYFDYWGQGTLVTVSS
VL: not shown
B5: the binding result in assay [1] is “binds”.

B6: C022 (antibody, V domains shown)
VH: QVQLQESGPGLVKPSETLSVTCTVSGGSISSSRYYWGWIRQPPGKGLEWIGSIYYSGSTYYNPSLKSRVTISVDTSKNQFSLKLSSVTAADTAVYYCARHAAAYYDRSGYYFIEYFQHWGQGTLVTVSS
VL: DIQMTQSPSTLSASVGDSVTITCRASQSISSWLAWYQQKPGKAPKLLIYKASSLESGVPSRFSGSGSGTEFTLTISSLQPDDFATYYCQQYNNYRYTFGQGTKLEIK
With B6, the binding result in assay [1] is “binds”.
